Test results: patent US8450280B2, “Activation of peptide prodrugs by hK2” (GenbSpera, Inc., priority 1999, dated 2013)
Starred links: 1 amine or outer side, 2 acyl side, 3 side chain; linkers in the order of their positions; H or OH if unused. Residues, ends and D or L forms follow the SMILES beside them. CO = O=C([*:1])[*:2]

Assays:
hK2 [1] = target: T1, hK2 (Homo sapiens, UniProt P20151); assay: Inhibition of hK2 by protease inhibitors (substrate H-Pro-Phe-Arg-AMC); type: biochemical; conditions: for inhibition at 100 µM: inhibitor 100 μM (highest recommended working concentration), 90 μM peptide substrate; for remaining activity at 100 µM: inhibitor 100 μM
T1 construct: made in house
Description: Activity of hK2 (1.6 pmol) was monitored using the substrate H-Pro-Phe-Arg-AMC (SEQ ID NO: 55) (90 μM). Inhibitors, at commonly used concentrations, and hK2 (8.3 nM) were mixed and proteolysis of 90 μM H-Pro-Phe-Arg-AMC (SEQ ID NO: 55) was followed up to 20 minutes, starting directly or 10 minutes after mixing the enzyme with various inhibitors. Inhibition was evaluated by comparison with […] controls.
The proteolytic activity is expressed in percentage of inhibitor-free control after 10 minutes of incubation.
Therefore, PPACK can be used to obtain fast irreversible inhibition of hK2.

hK2 [2] = target: T1, hK2; assay: Hydrolysis of hK2 substrates by hK2; type: biochemical; conditions: hK2 1 μg/ml, 50 mM Tris, 0.1 M NaCl, pH 7.8
Description: (§1) Hydrolyses of particular hK2 substrates were carried out at a hK2 concentrations of 1 μg/ml in 50 mM Tris buffer, with 0.1 M NaCl, at pH 7.8. Serum hydrolysis measurements were carried out in 50% fresh human serum in 50 mM Tris buffer, with 0.1 M NaCl, at pH 7.8. The single letter amino acid code was used to designate the peptide sequences used for Table 4. The units FU are arbitrary fluorescence units. The entries “U.D.” were for measurements of less than 0.01 FU/hour.

[3] = Serum hydrolysis of hK2 substrates; type: in vitro ADME; conditions: 50% fresh human serum in 50 mM Tris, 0.1 M NaCl, pH 7.8
Description: as §1

[4] = 10 minutes of incubation, 8.3 nM hK2, 90 μM substrate, read-out: Activity (%) of hK2, percentage of inhibitor-free control
[5] = inhibitor 5 μM, 10 minutes of incubation, 8.3 nM hK2, 90 μM substrate

T1 sequence (P20151 25-261): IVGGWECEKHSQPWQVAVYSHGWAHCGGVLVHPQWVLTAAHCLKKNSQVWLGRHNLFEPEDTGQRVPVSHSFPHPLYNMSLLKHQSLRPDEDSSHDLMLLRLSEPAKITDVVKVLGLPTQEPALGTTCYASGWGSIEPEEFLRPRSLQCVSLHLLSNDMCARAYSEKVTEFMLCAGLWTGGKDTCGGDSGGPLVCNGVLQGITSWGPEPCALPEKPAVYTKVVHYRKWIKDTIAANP

PSTI: protease inhibitor present in the prostate (DSLGREAKCYNELNGCTKIYDPVCGTDGNTYPNECVLCFENRKRQTSILIQKSGPC)
inhibition of hK2 (in words) (hK2 [1]; 8 nM hK2, 90 μM substrate): inhibited hK2 weakly
Activity (%) of hK2, percentage of inhibitor-free control (hK2 [1]; inhibitor 0.08 μM, 10 minutes of incubation, 8.3 nM hK2, 90 μM substrate): 100%
Activity (%) of hK2, percentage of inhibitor-free control (hK2 [1]; inhibitor 4 μM, 10 minutes of incubation, 8.3 nM hK2, 90 μM substrate): 89%

CC(C)[C@H](NC(=O)[C@H](CCCNC(=N)N)NC(=O)N[C@@H](Cc1ccccc1)C(=O)O)C(=O)N[C@H](C=O)CCCNC(=N)N [Antipain, antipain] ({Phe-CO}-Arg-Val-Arg-aldehyde)
inhibition at 100 µM (hK2 [1]): ~90%
remaining activity at 100 µM (hK2 [1]; [4]): 33%
remaining activity at 500 µM (hK2 [1]; inhibitor 500 μM, 10 minutes of incubation, 8.3 nM hK2, 90 μM substrate, read-out: Activity (%) of hK2, percentage of inhibitor-free control): 10%

NC(N)=NCCC[C@H](NC(=O)[C@@H]1CCCN1C(=O)[C@H](N)Cc1ccccc1)C(=O)CCl [PPACK]
inhibition of hK2 (in words) (hK2 [1]; 5 μM concentration, irreversible): inhibited hK2 rapidly
Activity (%) of hK2, percentage of inhibitor-free control (hK2 [1]; [5]): 0%

Cl.N=C(N)c1ccccc1 [Benzamidine, Benzamidine hydrochloride]
concentration required for efficient inhibition of hK2 (hK2 [1]): above 20 mM
remaining activity at 5000 µM (hK2 [1]; inhibitor 5000 μM, 10 minutes of incubation, 8.3 nM hK2, 90 μM substrate, read-out: Activity (%) of hK2, percentage of inhibitor-free control): 27%
remaining activity at 20000 µM (hK2 [1]; inhibitor 20,000 μM, 10 minutes of incubation, 8.3 nM hK2, 90 μM substrate, read-out: Activity (%) of hK2, percentage of inhibitor-free control): 8%

CC(=O)N[C@@H](CC(C)C)C(=O)N[C@@H](CC(C)C)C(=O)N[C@H](C=O)CCCNC(=N)N [Leupeptin, leupeptin]
inhibition of hK2 (in words) (hK2 [1]; 8 nM hK2, 90 μM substrate): only weakly inhibited
inhibition at 100 µM (hK2 [1]): ~60%
remaining activity at 100 µM (hK2 [1]; [4]): 12%

SEQ ID NO: 82: hK2 substrate peptide, single letter sequence P7-P′1 (GSQNQVRL; listed as Homo sapiens)
hK2 Hydrolysis Rate (hK2 [2]; Table 4): 193.55 FU/hr/m
Serum Hydrolysis Rate ([3]; Table 4): 0.03 FU/hr

Aprotinin
inhibition of hK2 (in words) (hK2 [1]; 8 nM hK2, 90 μM substrate): not to be good hK2 inhibitor
Activity (%) of hK2, percentage of inhibitor-free control (hK2 [1]; [5]): 10%
Activity (%) of hK2, percentage of inhibitor-free control (hK2 [1]; inhibitor 30 μM, 10 minutes of incubation, 8.3 nM hK2, 90 μM substrate): 33%

SEQ ID NO: 100: hK2 substrate peptide, single letter sequence P6-P′1 (GGKKRRL; listed as Homo sapiens)
hK2 Hydrolysis Rate (hK2 [2]; Table 5): 2583.0 FU/hr/m
Serum Hydrolysis Rate ([3]; Table 5): UD (The entries “U.D.” were for measurements of less than 0.01 FU/hour)

SEQ ID NO: 120: hK2 substrate peptide, single letter sequence P6-P′1 (GGKAKKL; listed as Homo sapiens)
hK2 Hydrolysis Rate (hK2 [2]; Table 5): 77.9 FU/hr/m
Serum Hydrolysis Rate ([3]; Table 5): UD (The entries “U.D.” were for measurements of less than 0.01 FU/hour)

SEQ ID NO: 108: hK2 substrate peptide, single letter sequence P7-P′1 (GHEQARRL; listed as Homo sapiens)
hK2 Hydrolysis Rate (hK2 [2]; Table 5): 1956.4 FU/hr/m
Serum Hydrolysis Rate ([3]; Table 5): 0.14 FU/hr

SEQ ID NO: 93: hK2 substrate peptide, single letter sequence P7-P′1 (GHAQKRRL; listed as Homo sapiens)
hK2 Hydrolysis Rate (hK2 [2]; Table 5): 3665.1 FU/hr/m
Serum Hydrolysis Rate ([3]; Table 5): 0.08 FU/hr

SEQ ID NO: 90: hK2 substrate peptide, single letter sequence P7-P′1 (GPAHQDHL; listed as Homo sapiens)
hK2 Hydrolysis Rate (hK2 [2]; Table 4): 48.06 FU/hr/m
Serum Hydrolysis Rate ([3]; Table 4): 0.00 FU/hr

SEQ ID NO: 84: hK2 substrate peptide, single letter sequence P7-P′1 (GSYEERHL; listed as Homo sapiens)
hK2 Hydrolysis Rate (hK2 [2]; Table 4): 42.87 FU/hr/m
Serum Hydrolysis Rate ([3]; Table 4): 0.09 FU/hr

SEQ ID NO: 102: hK2 substrate peptide, single letter sequence P6-P′1 (GGKAFRL; listed as Homo sapiens)
hK2 Hydrolysis Rate (hK2 [2]; Table 5): 2374.2 FU/hr/m
Serum Hydrolysis Rate ([3]; Table 5): 0.07 FU/hr

SEQ ID NO: 77: hK2 substrate peptide, single letter sequence P7-P′1 (GSNTERRL; listed as Homo sapiens)
hK2 Hydrolysis Rate (hK2 [2]; Table 4): 592.34 FU/hr/m
Serum Hydrolysis Rate ([3]; Table 4): UD (The entries “U.D.” were for measurements of less than 0.01 FU/hour)

SEQ ID NO: 71: hK2 substrate peptide, single letter sequence P7-P′1 (GSKGHRRL; listed as Homo sapiens)
hK2 Hydrolysis Rate (hK2 [2]; Table 4): 2649.96 FU/hr/m
Serum Hydrolysis Rate ([3]; Table 4): UD (The entries “U.D.” were for measurements of less than 0.01 FU/hour)

SEQ ID NO: 87: hK2 substrate peptide, single letter sequence P7-P′1 (GSNTEKHL; listed as Homo sapiens)
hK2 Hydrolysis Rate (hK2 [2]; Table 4): 80.54 FU/hr/m
Serum Hydrolysis Rate ([3]; Table 4): 0.03 FU/hr

SEQ ID NO: 69: hK2 substrate peptide, single letter sequence P7-P′1 (GPAHQRRL; listed as Homo sapiens)
hK2 Hydrolysis Rate (hK2 [2]; Table 4): 4017.81 FU/hr/m
Serum Hydrolysis Rate ([3]; Table 4): 0.10 FU/hr

SEQ ID NO: 95: hK2 substrate peptide, single letter sequence P7-P′1 (GHEAKRRL; listed as Homo sapiens)
hK2 Hydrolysis Rate (hK2 [2]; Table 5): 3324.1 FU/hr/m
Serum Hydrolysis Rate ([3]; Table 5): UD (The entries “U.D.” were for measurements of less than 0.01 FU/hour)

SEQ ID NO: 109: hK2 substrate peptide, single letter sequence P6-P′1 (GGKAKRL; listed as Homo sapiens)
hK2 Hydrolysis Rate (hK2 [2]; Table 5): 1788.9 FU/hr/m
Serum Hydrolysis Rate ([3]; Table 5): 0.14 FU/hr

SEQ ID NO: 76: hK2 substrate peptide, single letter sequence P7-P′1 (GHEQKGRL; listed as Homo sapiens)
hK2 Hydrolysis Rate (hK2 [2]; Table 4): 650.80 FU/hr/m
Serum Hydrolysis Rate ([3]; Table 4): 0.04 FU/hr

SEQ ID NO: 113: hK2 substrate peptide, single letter sequence P7-P′1 (GHEQKRRE; listed as Homo sapiens)
hK2 Hydrolysis Rate (hK2 [2]; Table 5): 1473.8 FU/hr/m
Serum Hydrolysis Rate ([3]; Table 5): UD (The entries “U.D.” were for measurements of less than 0.01 FU/hour)

SEQ ID NO: 94: hK2 substrate peptide, single letter sequence P6-P′1 (GGKSRRL; listed as Homo sapiens)
hK2 Hydrolysis Rate (hK2 [2]; Table 5): 3439.7 FU/hr/m
Serum Hydrolysis Rate ([3]; Table 5): 0.03 FU/hr

SEQ ID NO: 67: hK2 substrate peptide, single letter sequence P7-P′1 (GGGKARRL; listed as Homo sapiens)
hK2 Hydrolysis Rate (hK2 [2]; Table 4): 4784.22 FU/hr/m
Serum Hydrolysis Rate ([3]; Table 4): 0.03 FU/hr

SEQ ID NO: 73: hK2 substrate peptide, single letter sequence P7-P′1 (GSQNQRRL; listed as Homo sapiens)
hK2 Hydrolysis Rate (hK2 [2]; Table 4): 2100.48 FU/hr/m
Serum Hydrolysis Rate ([3]; Table 4): 0.05 FU/hr

SEQ ID NO: 111: hK2 substrate peptide, single letter sequence P6-P′1 (GGKARRS; listed as Homo sapiens)
hK2 Hydrolysis Rate (hK2 [2]; Table 5): 1609.6 FU/hr/m
Serum Hydrolysis Rate ([3]; Table 5): UD (The entries “U.D.” were for measurements of less than 0.01 FU/hour)
